In assay [1] the target is T1, CRF1R receptor (UniProt P34998 24-415, limits assumed).
T1 sequence (looked up): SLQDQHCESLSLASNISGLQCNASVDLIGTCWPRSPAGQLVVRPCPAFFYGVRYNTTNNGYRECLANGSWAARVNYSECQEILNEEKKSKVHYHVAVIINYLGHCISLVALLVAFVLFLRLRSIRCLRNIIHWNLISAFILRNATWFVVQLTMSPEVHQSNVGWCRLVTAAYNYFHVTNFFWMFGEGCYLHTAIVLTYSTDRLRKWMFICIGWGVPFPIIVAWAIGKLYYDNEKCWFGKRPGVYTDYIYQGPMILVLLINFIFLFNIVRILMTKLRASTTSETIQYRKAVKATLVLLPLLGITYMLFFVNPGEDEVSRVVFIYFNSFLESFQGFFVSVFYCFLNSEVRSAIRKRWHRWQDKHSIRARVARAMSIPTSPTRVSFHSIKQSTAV
In words: cell-based or functional assay.

The target in assay [2] is human corticotropin-releasing factor 2a (CRF2a receptor) (human), Q13324. In words: cell-based or functional assay.
Chain of human corticotropin-releasing factor 2a (CRF2a receptor) (human), Q13324 (Q13324 20-411): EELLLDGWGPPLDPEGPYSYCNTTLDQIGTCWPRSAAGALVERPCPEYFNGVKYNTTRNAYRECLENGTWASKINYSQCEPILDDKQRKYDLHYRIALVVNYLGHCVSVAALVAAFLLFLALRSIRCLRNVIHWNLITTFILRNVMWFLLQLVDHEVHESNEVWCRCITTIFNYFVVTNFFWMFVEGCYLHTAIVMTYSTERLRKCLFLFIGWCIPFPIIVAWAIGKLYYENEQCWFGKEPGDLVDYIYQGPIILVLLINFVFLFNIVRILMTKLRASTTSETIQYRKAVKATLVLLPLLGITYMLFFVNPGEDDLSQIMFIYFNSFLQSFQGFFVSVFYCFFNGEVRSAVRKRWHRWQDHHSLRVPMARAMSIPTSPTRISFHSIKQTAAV

*1 amine or outer side, *2 acyl side, *3 side chain or, on linkers, in order; H or OH if unused. Where no end group is shown, it is not given here. Side-chain parts run from the residue outwards. [ ]: non-standard residue; d: D form. The star is where a group is joined. C20 diacid = O=C(O)CCCCCCCCCCCCCCCCCCC(=O)*; γGlu = O=C(O)[C@H](CCC(=O)[*:2])N[*:1]; NMeI = CC[C@H](C)[C@H](NC)C(=O)O; Pentanoyl = CCCCC(=O)*; Aib = CC(C)(N)C(=O)O

B1: SEQ ID NO 218 (peptide)
peptide: [NMeI]VLSLD[dV]PIKLK([γGlu-C20 diacid])KILLEQEKQKEQREQAETN[Aib]QILAQV-NH2
modifications: N-terminus assumed
SMILES: CC[C@H](C)[C@H](NC)C(=O)N[C@H](C(=O)N[C@@H](CC(C)C)C(=O)N[C@@H](CO)C(=O)N[C@@H](CC(C)C)C(=O)N[C@@H](CC(=O)O)C(=O)N[C@@H](C(=O)N1CCC[C@H]1C(=O)N[C@H](C(=O)N[C@@H](CCCCN)C(=O)N[C@@H](CC(C)C)C(=O)N[C@@H](CCCCNC(=O)CC[C@H](NC(=O)CCCCCCCCCCCCCCCCCCC(=O)O)C(=O)O)C(=O)N[C@@H](CCCCN)C(=O)N[C@H](C(=O)N[C@@H](CC(C)C)C(=O)N[C@@H](CC(C)C)C(=O)N[C@@H](CCC(=O)O)C(=O)N[C@@H](CCC(N)=O)C(=O)N[C@@H](CCC(=O)O)C(=O)N[C@@H](CCCCN)C(=O)N[C@@H](CCC(N)=O)C(=O)N[C@@H](CCCCN)C(=O)N[C@@H](CCC(=O)O)C(=O)N[C@@H](CCC(N)=O)C(=O)N[C@@H](CCCNC(=N)N)C(=O)N[C@@H](CCC(=O)O)C(=O)N[C@@H](CCC(N)=O)C(=O)N[C@@H](C)C(=O)N[C@@H](CCC(=O)O)C(=O)N[C@H](C(=O)N[C@@H](CC(N)=O)C(=O)NC(C)(C)C(=O)N[C@@H](CCC(N)=O)C(=O)N[C@H](C(=O)N[C@@H](CC(C)C)C(=O)N[C@@H](C)C(=O)N[C@@H](CCC(N)=O)C(=O)N[C@H](C(N)=O)C(C)C)[C@@H](C)CC)[C@@H](C)O)[C@@H](C)CC)[C@@H](C)CC)C(C)C)C(C)C
For B1, the “Emax (% I)” value in assay [1] was found to be 24%. This molecule displayed an EC50 [nM] (cAMP) in assay [2] of 0.11 nM.

B2: SEQ ID NO 215 (peptide)
peptide: [NMeI]VLSLD[dV]PIKLK([γGlu-C20 diacid])KILLEQEKQK[Aib]QREQAETN[Aib]QILAQV-NH2
modifications: N-terminus assumed
SMILES: CC[C@H](C)[C@H](NC)C(=O)N[C@H](C(=O)N[C@@H](CC(C)C)C(=O)N[C@@H](CO)C(=O)N[C@@H](CC(C)C)C(=O)N[C@@H](CC(=O)O)C(=O)N[C@@H](C(=O)N1CCC[C@H]1C(=O)N[C@H](C(=O)N[C@@H](CCCCN)C(=O)N[C@@H](CC(C)C)C(=O)N[C@@H](CCCCNC(=O)CC[C@H](NC(=O)CCCCCCCCCCCCCCCCCCC(=O)O)C(=O)O)C(=O)N[C@@H](CCCCN)C(=O)N[C@H](C(=O)N[C@@H](CC(C)C)C(=O)N[C@@H](CC(C)C)C(=O)N[C@@H](CCC(=O)O)C(=O)N[C@@H](CCC(N)=O)C(=O)N[C@@H](CCC(=O)O)C(=O)N[C@@H](CCCCN)C(=O)N[C@@H](CCC(N)=O)C(=O)N[C@@H](CCCCN)C(=O)NC(C)(C)C(=O)N[C@@H](CCC(N)=O)C(=O)N[C@@H](CCCNC(=N)N)C(=O)N[C@@H](CCC(=O)O)C(=O)N[C@@H](CCC(N)=O)C(=O)N[C@@H](C)C(=O)N[C@@H](CCC(=O)O)C(=O)N[C@H](C(=O)N[C@@H](CC(N)=O)C(=O)NC(C)(C)C(=O)N[C@@H](CCC(N)=O)C(=O)N[C@H](C(=O)N[C@@H](CC(C)C)C(=O)N[C@@H](C)C(=O)N[C@@H](CCC(N)=O)C(=O)N[C@H](C(N)=O)C(C)C)[C@@H](C)CC)[C@@H](C)O)[C@@H](C)CC)[C@@H](C)CC)C(C)C)C(C)C
As to B2, the “Emax (% I)” value in assay [1] was found to be 19%. In assay [2], this molecule showed an EC50 [nM] (cAMP) of 0.12 nM.

B3: SEQ ID NO 217 (peptide)
peptide: [NMeI]VLSLD[dV]PIKLK([γGlu-C20 diacid])KILLEQEKQKAQREQAETN[Aib]QILAQV-NH2
modifications: N-terminus assumed
SMILES: CC[C@H](C)[C@H](NC)C(=O)N[C@H](C(=O)N[C@@H](CC(C)C)C(=O)N[C@@H](CO)C(=O)N[C@@H](CC(C)C)C(=O)N[C@@H](CC(=O)O)C(=O)N[C@@H](C(=O)N1CCC[C@H]1C(=O)N[C@H](C(=O)N[C@@H](CCCCN)C(=O)N[C@@H](CC(C)C)C(=O)N[C@@H](CCCCNC(=O)CC[C@H](NC(=O)CCCCCCCCCCCCCCCCCCC(=O)O)C(=O)O)C(=O)N[C@@H](CCCCN)C(=O)N[C@H](C(=O)N[C@@H](CC(C)C)C(=O)N[C@@H](CC(C)C)C(=O)N[C@@H](CCC(=O)O)C(=O)N[C@@H](CCC(N)=O)C(=O)N[C@@H](CCC(=O)O)C(=O)N[C@@H](CCCCN)C(=O)N[C@@H](CCC(N)=O)C(=O)N[C@@H](CCCCN)C(=O)N[C@@H](C)C(=O)N[C@@H](CCC(N)=O)C(=O)N[C@@H](CCCNC(=N)N)C(=O)N[C@@H](CCC(=O)O)C(=O)N[C@@H](CCC(N)=O)C(=O)N[C@@H](C)C(=O)N[C@@H](CCC(=O)O)C(=O)N[C@H](C(=O)N[C@@H](CC(N)=O)C(=O)NC(C)(C)C(=O)N[C@@H](CCC(N)=O)C(=O)N[C@H](C(=O)N[C@@H](CC(C)C)C(=O)N[C@@H](C)C(=O)N[C@@H](CCC(N)=O)C(=O)N[C@H](C(N)=O)C(C)C)[C@@H](C)CC)[C@@H](C)O)[C@@H](C)CC)[C@@H](C)CC)C(C)C)C(C)C
As for B3, the “Emax (% I)” value in assay [1] was 33%. In addition, the EC50 [nM] (cAMP) in assay [2] stood at 0.09 nM.

B4: SEQ ID NO 216 (peptide)
peptide: [NMeI]VLSLD[dV]PIKLK([γGlu-C20 diacid])KILLEQEAQKKQREQAETN[Aib]QILAQV-NH2
modifications: N-terminus assumed
SMILES: CC[C@H](C)[C@H](NC)C(=O)N[C@H](C(=O)N[C@@H](CC(C)C)C(=O)N[C@@H](CO)C(=O)N[C@@H](CC(C)C)C(=O)N[C@@H](CC(=O)O)C(=O)N[C@@H](C(=O)N1CCC[C@H]1C(=O)N[C@H](C(=O)N[C@@H](CCCCN)C(=O)N[C@@H](CC(C)C)C(=O)N[C@@H](CCCCNC(=O)CC[C@H](NC(=O)CCCCCCCCCCCCCCCCCCC(=O)O)C(=O)O)C(=O)N[C@@H](CCCCN)C(=O)N[C@H](C(=O)N[C@@H](CC(C)C)C(=O)N[C@@H](CC(C)C)C(=O)N[C@@H](CCC(=O)O)C(=O)N[C@@H](CCC(N)=O)C(=O)N[C@@H](CCC(=O)O)C(=O)N[C@@H](C)C(=O)N[C@@H](CCC(N)=O)C(=O)N[C@@H](CCCCN)C(=O)N[C@@H](CCCCN)C(=O)N[C@@H](CCC(N)=O)C(=O)N[C@@H](CCCNC(=N)N)C(=O)N[C@@H](CCC(=O)O)C(=O)N[C@@H](CCC(N)=O)C(=O)N[C@@H](C)C(=O)N[C@@H](CCC(=O)O)C(=O)N[C@H](C(=O)N[C@@H](CC(N)=O)C(=O)NC(C)(C)C(=O)N[C@@H](CCC(N)=O)C(=O)N[C@H](C(=O)N[C@@H](CC(C)C)C(=O)N[C@@H](C)C(=O)N[C@@H](CCC(N)=O)C(=O)N[C@H](C(N)=O)C(C)C)[C@@H](C)CC)[C@@H](C)O)[C@@H](C)CC)[C@@H](C)CC)C(C)C)C(C)C
Regarding B4, in assay [1], the EC50 (as a rule, the midpoint of the concentration-response curve) was determined as 80.3 nM and the “Emax (% I)” value was 61%. In assay [2], this molecule gave an EC50 [nM] (cAMP) of 0.05 nM.

B5: SEQ ID NO 219 (peptide)
peptide: Pentanoyl-VLSLD[dV]PIKLK([γGlu-C20 diacid])KILLEQEKQKKQREQAETN[Aib]QILAQV-NH2
SMILES: CCCCC(=O)N[C@H](C(=O)N[C@@H](CC(C)C)C(=O)N[C@@H](CO)C(=O)N[C@@H](CC(C)C)C(=O)N[C@@H](CC(=O)O)C(=O)N[C@@H](C(=O)N1CCC[C@H]1C(=O)N[C@H](C(=O)N[C@@H](CCCCN)C(=O)N[C@@H](CC(C)C)C(=O)N[C@@H](CCCCNC(=O)CC[C@H](NC(=O)CCCCCCCCCCCCCCCCCCC(=O)O)C(=O)O)C(=O)N[C@@H](CCCCN)C(=O)N[C@H](C(=O)N[C@@H](CC(C)C)C(=O)N[C@@H](CC(C)C)C(=O)N[C@@H](CCC(=O)O)C(=O)N[C@@H](CCC(N)=O)C(=O)N[C@@H](CCC(=O)O)C(=O)N[C@@H](CCCCN)C(=O)N[C@@H](CCC(N)=O)C(=O)N[C@@H](CCCCN)C(=O)N[C@@H](CCCCN)C(=O)N[C@@H](CCC(N)=O)C(=O)N[C@@H](CCCNC(=N)N)C(=O)N[C@@H](CCC(=O)O)C(=O)N[C@@H](CCC(N)=O)C(=O)N[C@@H](C)C(=O)N[C@@H](CCC(=O)O)C(=O)N[C@H](C(=O)N[C@@H](CC(N)=O)C(=O)NC(C)(C)C(=O)N[C@@H](CCC(N)=O)C(=O)N[C@H](C(=O)N[C@@H](CC(C)C)C(=O)N[C@@H](C)C(=O)N[C@@H](CCC(N)=O)C(=O)N[C@H](C(N)=O)C(C)C)[C@@H](C)CC)[C@@H](C)O)[C@@H](C)CC)[C@@H](C)CC)C(C)C)C(C)C
As for B5, in assay [1], the 50% effective concentration (EC50) was found to be 222 nM and the “Emax (% I)” value is 48%. Moreover, in assay [2], the EC50 [nM] (cAMP) is 0.16 nM.

B6: SEQ ID NO 220 (peptide)
peptide: Pentanoyl-VLSLD[dV]PIKLK([γGlu-C20 diacid])KILLEQEKQK[Aib]QREQAETN[Aib]QILAQV-NH2
SMILES: CCCCC(=O)N[C@H](C(=O)N[C@@H](CC(C)C)C(=O)N[C@@H](CO)C(=O)N[C@@H](CC(C)C)C(=O)N[C@@H](CC(=O)O)C(=O)N[C@@H](C(=O)N1CCC[C@H]1C(=O)N[C@H](C(=O)N[C@@H](CCCCN)C(=O)N[C@@H](CC(C)C)C(=O)N[C@@H](CCCCNC(=O)CC[C@H](NC(=O)CCCCCCCCCCCCCCCCCCC(=O)O)C(=O)O)C(=O)N[C@@H](CCCCN)C(=O)N[C@H](C(=O)N[C@@H](CC(C)C)C(=O)N[C@@H](CC(C)C)C(=O)N[C@@H](CCC(=O)O)C(=O)N[C@@H](CCC(N)=O)C(=O)N[C@@H](CCC(=O)O)C(=O)N[C@@H](CCCCN)C(=O)N[C@@H](CCC(N)=O)C(=O)N[C@@H](CCCCN)C(=O)NC(C)(C)C(=O)N[C@@H](CCC(N)=O)C(=O)N[C@@H](CCCNC(=N)N)C(=O)N[C@@H](CCC(=O)O)C(=O)N[C@@H](CCC(N)=O)C(=O)N[C@@H](C)C(=O)N[C@@H](CCC(=O)O)C(=O)N[C@H](C(=O)N[C@@H](CC(N)=O)C(=O)NC(C)(C)C(=O)N[C@@H](CCC(N)=O)C(=O)N[C@H](C(=O)N[C@@H](CC(C)C)C(=O)N[C@@H](C)C(=O)N[C@@H](CCC(N)=O)C(=O)N[C@H](C(N)=O)C(C)C)[C@@H](C)CC)[C@@H](C)O)[C@@H](C)CC)[C@@H](C)CC)C(C)C)C(C)C
Consider B6, for which the “Emax (% I)” value in assay [1] is 32%. Further, the EC50 [nM] (cAMP) in assay [2] is 0.27 nM.

The values above are taken from patent US20260001928A1 (CORTERIA PHARMACEUTICALS, priority 2022, published 2026).
